Patent US20090036382A1, “TGF-Beta Modulators and Use Thereof” (Universita' Degli Studi Di Padova, priority 2006, published 2009)

System: pro TGF-β1
Assay: CAGA12-lux luciferase reporter in HEK293T cells co-transfected with pro TGF-β1 vector
Type: cell-based, human
Details: CAGA12-lux, co-transfection with pro TGF-β1 vector, FIG. 2B, 2C
From the text: • The construct for emilin 1 expression was engineered in pCS2 vector (Rupp R. A. et al., 1994, Genes Dev 8, 1311-1323) (for a physical map of the vector, see the site faculty.washington.edu/rtmoon/pcs2+.html) as described (Zanetti M. et al., 2004, Mol Cell Biol 24, 638-650); the vector used for proTGF-β expression in MEF and HEK293T cells is pCDNA3.1 (Invitrogen). Vectors containing the coding sequence for human pro TGF-β are described in Young and Murphy-Ullrich, 2004 (Young and Murphy-Ullrich, 2004, J Biol Chem 279, 38032-38039). The human pro TGF-β cDNA sequence is reported in the data bank (NP_000660; protein 000651). • The vector for Furin/SPC 1 expression is pCDNA3.1 (Invitrogen) • p15 and CAGA 12 promoter fragments are described in Jonk L. J. et al., 1998, J Biol Chem 273, 21145-21152 […]. • Constructs containing Flag sequences are described in Young G. D and Murphy-Ullrich J E, 2004, J Biol Chem 279, 38032-38039. • Constructs containing the Flag epitope (e.g. Flag-EMI-domain-GPI) were prepared as described in Chubet R G et al. Biotechniques 1996; 20(1):136-141 and detected by anti-Flag antibody (Kodak Inc.). • Constructs containing the GPI anchor were prepared as described in the Manual “Current Protocols in Cell Biology” Howard R. Petty Wayne State University, Detroit, Mich.; Juan S. Bonifacino, Mary Dasso, Joe B. Harford, Jennifer Lippincott-Schwartz, and Kenneth M. Yamada (eds.), Copyright C 2003 John Wiley & Sons, Inc. (GPI-anchor). In the construct Flag-EMI domain-GPI, the Flag sequence was inserted at the N-terminus after the signal peptide, while the GPI-anchor sequence was placed at the COOH-terminal end. • The construct emilin 1-KDEL was obtained by inserting the KDEL coding sequence described by Munro S., and Pelham, H. R., 1987, Cell 48, 899-907 upstream the emilin 1 STOP codon. • The construct containing the type II TGF-β receptor with HA epitope was described in Wrana J. L. et al., 1994, Nature 370, 341-347. • supplier of the drugs used: SP600125 (Calbiochem), SB431542 (Tocris). • Purified recombinant LAP and TGF-β1 proteins were purchased from (R&D Systems)
To verify how emilin or the EMI domain can contrast TGF-β1 activity independently from receptor binding, HEK293T cells were transfected with a construct coding luciferase placed under control of a TGF-β activated promoter: CAGA12-lux (Jonk et al., 1998) alone or in combination with a emilin1 expression vector (500 ng) as shown in FIG. 2B. After transfection, cells were treated (black bar) or not treated (white bar) with 5 ng/ml recombinant TGF-1 (lanes 1 and 2). Column bars from 3 to 6 report luciferase expression values in experiments with cells co-transfected with the expression vector for emilin1 (or EMI-domain or emilin1ΔEMI) alone (white bars) or in combination with the vector encoding pro TGF-β1 (black bars). Values show the mean±st. dev.
As further validation of the above observations, HEK293T cells were cotransfected with expression plasmids carrying the cDNAs shown in the summary scheme above the figure, along with CAGA12-lux and CMV-lacZ constructs, and luciferase expression levels were measured.

B1: EMI domain: cysteine-rich domain of emilin-1, residues 55-131, SEQ ID NO 2; in some experiments Flag-tagged and GPI-anchored (protein)
chain: RHRNWCAYVVTRTVSCVLEDGVETYVKYQPCAWGQPQCPQSIMYRRFLRPRYRVAYKTVTDMEWRCCQGYGGDDCAE
modifications: sometimes Flag tag and GPI anchor; homo sapiens
notes: in some experiments Flag-tagged and GPI-anchored
For B1, the “Effect on luciferase expression induced by pro TGF-β1” value was “inhibits pro TGF-β”.
